According to patent US8735553 (BEIGENE SWITZERLAND, dated 2014):
Numbering of substitutions follows the chain as printed. Read-outs that look alike come from different tables or passages of the source.

B1: ch317 (antibody, human IgG2, V domains shown, not shown: a dimerising Fc or GST)
VH: QVQLKESGPGLVAPSKNLSITCTVSGFSLTSYGVHWIRQPPGKGLEWLGVIWAGGSTNYNSALMSRLSISKDNSRSQVFLRMNSLQTDDTAMYYCARAYGNYWYIDVWGAGTTVTVSS
VL: DIVMTQTPKFLLVSAGDRVTITCKASQSVSNDVAWYQQKPGQSPKLLINYAFHRFTGVPDRFTGSGYGTDFIFTISTVQAEDLAVYFCHQAYSSPYTFGGGTKLEMKR
notes: domain: Ig kappa C-region; Murine VH and Vκ of mu317 on human IgG2 / kappa
B2: ch326 (antibody, human IgG2, V domains shown, not shown: a dimerising Fc or GST)
VH: QIQLVQSGPELKKPGETVKISCKASGYTFTNYGMNWVKQAPGKGLKWMGWINNNNGEPTYAEEFKGRFAFSLETSASTAYLQINNLKNEDTATYFCARDVMDYWGQGTSVTVSS
VL: DIVLTQSPASLAVSLGQRATISCRASESVDNYGYSFMHWYQQKPGQPPQLLIYRASNLESGIPARFSGSGSRTGFTLTINPVEADDVATYYCQQSKEYPTFGGGTKLEVKR
notes: domain: Ig kappa C-region; Murine VH and Vκ of mu326 on human IgG2 / kappa
B3: hu326-2 E46K (antibody, V domains shown)
VH: QVQLVQSGSELKKPGASVKVSCKASGYTFTNYGMNWVRQAPGQGLKWMGWINNNNGEPTYAQGFRGRFVFSLDTSASTAYLQISSLKTEDTAVYFCARDVMDYWGQGTTVTVSS
VL: DIVLTQSPASLAVSPGQRATITCRASESVDNYGYSFMHWYQQKPGQPPKLLIYRASNLESGVPARFSGSGSRTDFTLTINPVEANDTANYYCQQSKEYPTFGGGTKVEIK
notes: mAb; constant regions not restated (hu326-1 is IgG2 / kappa); Back mutation to murine
B4: hu326-1 (antibody, IgG2, V domains shown, not shown: a dimerising Fc or GST)
VH: B3 VH with K46E
VL: B2 VL with L15P, S22T, Q49K, I62V, G74D, D85N, V87T, T89N, L107V, V109I
notes: domain: Ig kappa C-region; Initial humanized version, IgG2 / kappa
B5: hu326-2 G63D (antibody, V domains shown)
VH: B3 VH with K46E, G63D
VL: B3 VL
notes: as for B3
B6: hu326-2 T88N (antibody, V domains shown)
VH: B3 VH with K46E, T88N
VL: B3 VL
notes: as for B3
B7: hu326-2 A16E (antibody, V domains shown)
VH: B3 VH with A16E, K46E
VL: B3 VL
notes: as for B3
B8: hu326-3G1 (antibody, V domains shown)
VH: B3 VH with S9P, G63D, F95Y, T109L
VL: B3 VL
notes: Humanized mAb
B9: hu326-2 F95Y (antibody, V domains shown)
VH: B3 VH with K46E, F95Y
VL: B3 VL
notes: mAb; constant regions not restated (hu326-1 is IgG2 / kappa); Forward mutation to human
B10: hu326-2 S85N (antibody, V domains shown)
VH: B3 VH with K46E, S85N
VL: B3 VL
notes: as for B3
B11: hu326-2 S9P (antibody, V domains shown)
VH: B3 VH with S9P, K46E
VL: B3 VL
notes: as for B3
B12: hu326-2 A76V (antibody, V domains shown)
VH: B3 VH with K46E, A76V
VL: B3 VL
notes: as for B9
B13: hu326-2 S84N (antibody, V domains shown)
VH: B3 VH with K46E, S84N
VL: B3 VL
notes: as for B3
B14: hu317-1 (antibody, IgG2, V domains shown, not shown: a dimerising Fc or GST)
VH: QVQLQESGPGLVKPSETLSLTCTVSGFSLTSYGVHWIRQPPGKGLEWLGVIWAGGSTNYNPSLKSRLTISKDNSKSQVSLKMSSVTAADTAVYYCARAYGNYWYIDVWGQGTTVTVSS
VL: DIVMTQSPDSLAVSLGERATINCKASQSVSNDVAWYQQKPGQPPKLLINYAFHRFTGVPDRFSGSGYGTDFTLTISSLQAEDVAVYYCHQAYSSPYTFGGGTKLEIKR
notes: as for B4
B15: hu317-4B5 (antibody, V domains shown)
VH: B14 VH with L48I, W52Y, L67V, N73T, S76N, M82L
VL: DIVMTQSPDSLAVSLGERATINCKSSESVSNDVAWYQQKPGQPPKLLINYAFHRFTGVPDRFSGSGYGTDFTLTISSLQAEDVAVYYCHQAYSSPYTFGQGTKLEIK
notes: Humanized mAb
B16: Fab hu317-2_V78F / hu317-1_Vκ (Fab, V domains shown)
VH: B14 VH with V78F
VL: B15 VL with S25A, E27Q, Q100G
B17: hu317-4B2 (antibody, V domains shown)
VH: B14 VH with L48I, W52Y, L67V, N73T, S76N, V78F, M82L
VL: B15 VL
notes: Humanized mAb
B18: Fab hu317-3A / hu317-1_Vκ (Fab, V domains shown)
VH: B14 VH with L48I, L67V, K71V, N73T, S76N, V78F, M82L
VL: B15 VL with S25A, E27Q, Q100G
B19: Fab hu317-2_S76N / hu317-1_Vκ (Fab, V domains shown)
VH: B14 VH with S76N
VL: B15 VL with S25A, E27Q, Q100G

Experiments:
[1] = target: T1, human PD-1 expressed on cells (human, UniProt Q15116 25-288); experiment: FACS on PD-1-expressing cells, goat anti-human IgG detection
T1 construct: whole, on cells; also called HuT78/PD-1; NK92MI/PD-1

[2] = target: T1, human PD-1 expressed on cells; experiment: cell-based or functional assay
[3] = target: P3Z chimeric PD-1 receptor (human); experiment: cell-based or functional assay
[4] = target: T1, human PD-1 expressed on cells; experiment: FACS on PD-1-expressing cells
[5] = target: T1, human PD-1 expressed on cells; experiment: cell-based or functional assay; remark: listed apart in the source
[6] = target: P3Z chimeric PD-1 receptor (human); experiment: cell-based or functional assay; remark: listed apart in the source
[7] = target: T1, human PD-1 expressed on cells; experiment: FACS on PD-1-expressing cells; remark: listed apart in the source
[8] = target: T1, human PD-1 expressed on cells; experiment: cell-based or functional assay; remark: listed apart in the source
[9] = target: P3Z chimeric PD-1 receptor (human); experiment: cell-based or functional assay; remark: listed apart in the source
[10] = target: T2, wild-type human PD-1 recombinant protein (PD-1/His or PD-1/Fc, not said which) (human, UniProt Q15116 21-168); experiment: ELISA on coated recombinant PD-1
T2 construct: also called WT PD-1

[11] = target: P3Z chimeric PD-1 receptor (human); experiment: cell-based or functional assay; remark: listed apart in the source

T1 sequence (Q15116 25-288): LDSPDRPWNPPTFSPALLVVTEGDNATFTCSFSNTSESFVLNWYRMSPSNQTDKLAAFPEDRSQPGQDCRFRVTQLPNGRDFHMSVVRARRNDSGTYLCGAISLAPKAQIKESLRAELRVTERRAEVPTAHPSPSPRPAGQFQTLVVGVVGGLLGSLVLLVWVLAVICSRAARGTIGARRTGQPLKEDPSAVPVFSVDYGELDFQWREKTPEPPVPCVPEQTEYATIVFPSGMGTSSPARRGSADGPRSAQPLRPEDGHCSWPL
T2 sequence (Q15116 21-168 limits assumed): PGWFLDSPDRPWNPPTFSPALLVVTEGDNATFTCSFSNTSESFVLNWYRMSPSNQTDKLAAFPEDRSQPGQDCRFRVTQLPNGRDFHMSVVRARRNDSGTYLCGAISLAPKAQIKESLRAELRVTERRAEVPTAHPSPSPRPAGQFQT
Sequence of P3Z chimeric PD-1 receptor (human) (chain, as listed by the source mutant limits assumed): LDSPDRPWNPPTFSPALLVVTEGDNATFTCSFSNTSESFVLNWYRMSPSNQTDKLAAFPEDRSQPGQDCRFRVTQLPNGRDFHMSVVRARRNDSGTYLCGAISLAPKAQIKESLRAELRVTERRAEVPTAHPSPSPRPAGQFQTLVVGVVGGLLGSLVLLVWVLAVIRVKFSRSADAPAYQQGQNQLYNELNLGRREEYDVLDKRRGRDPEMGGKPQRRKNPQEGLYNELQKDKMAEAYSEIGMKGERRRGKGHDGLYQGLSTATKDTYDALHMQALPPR

Row | Binder | EC50 [4] | IL-2 release in HuT78/PD-1, EC50 [8] | IL-2 release in HuT78/PD-1, Top line [8] | IL-2 release in HuT78/P3Z, IC50 [9] | IL-2 release in HuT78/P3Z, Max inhibition [9] | further results
1 | B1 |  |  |  |  |  | EC50 [1]: 0.36 µg/mL; Assay-1 IL-2 release, EC50 (HuT78/PD-1 + HEK293/OS8/PD-L1) [2]: 0.08 µg/mL; Assay-1 IL-2 release, Top line (HuT78/PD-1 + HEK293/OS8/PD-L1) [2]: 294 pg/mL; Assay-2 IL-2 release, IC50 (HuT78/P3Z + HEK293/PD-L1) [3]: 0.1 µg/mL; Assay-2 IL-2 release, Max inhibition (HuT78/P3Z + HEK293/PD-L1) [3]: 99%
2 | B2 | 0.118 µg/mL | 0.135 µg/mL | 993 pg/mL | 0.074 µg/mL | 93% | Assay-1 IL-2 release, EC50 (HuT78/PD-1 + HEK293/OS8/PD-L1) [5]: 0.074 µg/mL; Assay-1 IL-2 release, Top line (HuT78/PD-1 + HEK293/OS8/PD-L1) [5]: 1060 pg/mL; Assay-2 IL-2 release, IC50 (HuT78/P3Z + HEK293/PD-L1) [6]: 0.12 µg/mL; Assay-2 IL-2 release, Max inhibition (HuT78/P3Z + HEK293/PD-L1) [6]: 81%; EC50 [7]: 0.072 µg/mL; Top MFI [7]: 163 MFI
3 | B3 | 0.132 µg/mL | 0.259 µg/mL | 1240 pg/mL | 0.079 µg/mL | 95.2% | 
4 | B4 | 0.317 µg/mL | 0.213 µg/mL | 987 pg/mL | 0.087 µg/mL | 92.4% | Assay-1 IL-2 release, EC50 (HuT78/PD-1 + HEK293/OS8/PD-L1) [5]: 0.112 µg/mL; Assay-1 IL-2 release, Top line (HuT78/PD-1 + HEK293/OS8/PD-L1) [5]: 1140 pg/mL; Assay-2 IL-2 release, IC50 (HuT78/P3Z + HEK293/PD-L1) [6]: 0.1 µg/mL; Assay-2 IL-2 release, Max inhibition (HuT78/P3Z + HEK293/PD-L1) [6]: 84.4%; EC50 [7]: 0.117 µg/mL; Top MFI [7]: 129 MFI
5 | B5 | 0.139 µg/mL | 0.12 µg/mL | 1070 pg/mL | 0.064 µg/mL | 96.4% | 
6 | B6 | 0.098 µg/mL |  |  | 0.102 µg/mL | 95.8% | 
7 | B7 | 0.155 µg/mL | 0.126 µg/mL | 1050 pg/mL | 0.078 µg/mL | 96.3% | 
8 | B8 |  |  |  |  |  | EC50 [10]: 0.088 µg/mL
9 | B9 | 0.097 µg/mL | 0.135 µg/mL | 1030 pg/mL | 0.166 µg/mL | 95.6% | 
10 | B10 | 0.11 µg/mL | 0.104 µg/mL | 932 pg/mL | 0.093 µg/mL | 95.6% | 
11 | B11 | 0.145 µg/mL | 0.136 µg/mL | 1020 pg/mL | 0.075 µg/mL | 96% | 
12 | B12 | 0.102 µg/mL | 0.112 µg/mL | 1000 pg/mL | 0.071 µg/mL | 96.7% | 
13 | B13 | 0.131 µg/mL | 0.126 µg/mL | 1020 pg/mL | 0.06 µg/mL | 96.5% | 
14 | B14 |  |  |  |  |  | EC50 [1]: 0.46 µg/mL; Assay-1 IL-2 release, EC50 (HuT78/PD-1 + HEK293/OS8/PD-L1) [2]: 0.09 µg/mL; Assay-1 IL-2 release, Top line (HuT78/PD-1 + HEK293/OS8/PD-L1) [2]: 386 pg/mL; Assay-2 IL-2 release, IC50 (HuT78/P3Z + HEK293/PD-L1) [3]: 0.11 µg/mL; Assay-2 IL-2 release, Max inhibition (HuT78/P3Z + HEK293/PD-L1) [3]: 99.8%
15 | B15 |  |  |  |  |  | EC50 [10]: 0.057 µg/mL
16 | B16 |  |  |  |  |  | IL-2 release in HuT78/P3Z, EC50 [11]: 0.38 µg/mL; IL-2 release in HuT78/P3Z, Max inhibition [11]: 98%
17 | B17 |  |  |  |  |  | EC50 [10]: 0.066 µg/mL
18 | B18 |  |  |  |  |  | IL-2 release in HuT78/P3Z, EC50 [11]: 0.35 µg/mL; IL-2 release in HuT78/P3Z, Max inhibition [11]: 79.7%
19 | B19 |  |  |  |  |  | IL-2 release in HuT78/P3Z, EC50 [11]: 0.28 µg/mL; IL-2 release in HuT78/P3Z, Max inhibition [11]: 98.6%
